# Measurements published in article PMC2234252 (The Journal of Cell Biology, 2008).
# T1: hZwint-1 (human, UniProt O95229 1-277)
# T1 sequence (looked up): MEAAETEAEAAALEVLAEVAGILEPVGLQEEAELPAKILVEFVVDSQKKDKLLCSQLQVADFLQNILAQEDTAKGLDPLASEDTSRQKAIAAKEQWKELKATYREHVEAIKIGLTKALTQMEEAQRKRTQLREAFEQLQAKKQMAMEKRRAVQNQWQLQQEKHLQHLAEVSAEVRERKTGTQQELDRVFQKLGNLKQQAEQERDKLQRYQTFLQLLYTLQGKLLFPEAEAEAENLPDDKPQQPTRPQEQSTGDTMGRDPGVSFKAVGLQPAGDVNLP
# Biological target: T1, hZwint-1
# Test: two-hybrid
row,β-galactosidase assay,Binder
1,1.2,"hZW10 DI69AA (natural protein, human, UniProt O43264 1-779, looked up) MASFVTEVLAHSGRLEKEDLGTRISRLTRRVEEIKGEVCNMISKKYSEFLPSMQSAQGLITQVDKLSEAADLLKSRIESEVRRDLHVSTGEFTDLKQQLERDSVVLSLLKQLQEFSTAIEEYNCALTEKKYVTGAQRLEEAQKCLKLLKSRKCFDLKILKSLSMELTIQKQNILYHLGEEWQKLIVWKFPPSKDTSSLESYLQTELHLYTEQSHKEEKTPMPPISSVLLAFSVLGELHSKLKSFGQMLLKYILRPLASCPSLHAVIESQPNIVIIRFESIMTNLEYPSPSEVFTKIRLVLEVLQKQLLDLPLDTDLENEKTSTVPLAEMLGDMIWEDLSECLIKNCLVYSIPTNSSKLQQYEEIIQSTEEFENALKEMRFLKGDTTDLLKYARNINSHFANKKCQDVIVAARNLMTSEIHNTVKIIPDSKINVPELPTPDEDNKLEVQKVSNTQYHEVMNLEPENTLDQHSFSLPTCRISESVKKLMELAYQTLLEATTSSDQCAVQLFYSVRNIFHLFHDVVPTYHKENLQKLPQLAAIHHNNCMYIAHHLLTLGHQFRLRLAPILCDGTATFVDLVPGFRRLGTECFLAQMRAQKGELLERLSSARNFSNMDDEENYSAASKAVRQVLHQLKRLGIVWQDVLPVNIYCKAMGTLLNTAISEVIGKITALEDISTEDGDRLYSLCKTVMDEGPQVFAPLSEESKNKKYQEEVPVYVPKWMPFKELMMMLQASLQEIGDRWADGKGPLAAAFSSSEVKALIRALFQNTERRAAALAKIK"
2,449,"hZW10 S55A (natural protein, human, UniProt O43264 1-779, looked up) MASFVTEVLAHSGRLEKEDLGTRISRLTRRVEEIKGEVCNMISKKYSEFLPSMQAAQGLITQVDKLSEDIDLLKSRIESEVRRDLHVSTGEFTDLKQQLERDSVVLSLLKQLQEFSTAIEEYNCALTEKKYVTGAQRLEEAQKCLKLLKSRKCFDLKILKSLSMELTIQKQNILYHLGEEWQKLIVWKFPPSKDTSSLESYLQTELHLYTEQSHKEEKTPMPPISSVLLAFSVLGELHSKLKSFGQMLLKYILRPLASCPSLHAVIESQPNIVIIRFESIMTNLEYPSPSEVFTKIRLVLEVLQKQLLDLPLDTDLENEKTSTVPLAEMLGDMIWEDLSECLIKNCLVYSIPTNSSKLQQYEEIIQSTEEFENALKEMRFLKGDTTDLLKYARNINSHFANKKCQDVIVAARNLMTSEIHNTVKIIPDSKINVPELPTPDEDNKLEVQKVSNTQYHEVMNLEPENTLDQHSFSLPTCRISESVKKLMELAYQTLLEATTSSDQCAVQLFYSVRNIFHLFHDVVPTYHKENLQKLPQLAAIHHNNCMYIAHHLLTLGHQFRLRLAPILCDGTATFVDLVPGFRRLGTECFLAQMRAQKGELLERLSSARNFSNMDDEENYSAASKAVRQVLHQLKRLGIVWQDVLPVNIYCKAMGTLLNTAISEVIGKITALEDISTEDGDRLYSLCKTVMDEGPQVFAPLSEESKNKKYQEEVPVYVPKWMPFKELMMMLQASLQEIGDRWADGKGPLAAAFSSSEVKALIRALFQNTERRAAALAKIK"
3,131,"hZW10 SE79AA (natural protein, human, UniProt O43264 1-779, looked up) MASFVTEVLAHSGRLEKEDLGTRISRLTRRVEEIKGEVCNMISKKYSEFLPSMQSAQGLITQVDKLSEDIDLLKSRIEAAVRRDLHVSTGEFTDLKQQLERDSVVLSLLKQLQEFSTAIEEYNCALTEKKYVTGAQRLEEAQKCLKLLKSRKCFDLKILKSLSMELTIQKQNILYHLGEEWQKLIVWKFPPSKDTSSLESYLQTELHLYTEQSHKEEKTPMPPISSVLLAFSVLGELHSKLKSFGQMLLKYILRPLASCPSLHAVIESQPNIVIIRFESIMTNLEYPSPSEVFTKIRLVLEVLQKQLLDLPLDTDLENEKTSTVPLAEMLGDMIWEDLSECLIKNCLVYSIPTNSSKLQQYEEIIQSTEEFENALKEMRFLKGDTTDLLKYARNINSHFANKKCQDVIVAARNLMTSEIHNTVKIIPDSKINVPELPTPDEDNKLEVQKVSNTQYHEVMNLEPENTLDQHSFSLPTCRISESVKKLMELAYQTLLEATTSSDQCAVQLFYSVRNIFHLFHDVVPTYHKENLQKLPQLAAIHHNNCMYIAHHLLTLGHQFRLRLAPILCDGTATFVDLVPGFRRLGTECFLAQMRAQKGELLERLSSARNFSNMDDEENYSAASKAVRQVLHQLKRLGIVWQDVLPVNIYCKAMGTLLNTAISEVIGKITALEDISTEDGDRLYSLCKTVMDEGPQVFAPLSEESKNKKYQEEVPVYVPKWMPFKELMMMLQASLQEIGDRWADGKGPLAAAFSSSEVKALIRALFQNTERRAAALAKIK"
4,2.7,"hZW10 GLI58AAA (natural protein, human, UniProt O43264 1-779, looked up) MASFVTEVLAHSGRLEKEDLGTRISRLTRRVEEIKGEVCNMISKKYSEFLPSMQSAQAAATQVDKLSEDIDLLKSRIESEVRRDLHVSTGEFTDLKQQLERDSVVLSLLKQLQEFSTAIEEYNCALTEKKYVTGAQRLEEAQKCLKLLKSRKCFDLKILKSLSMELTIQKQNILYHLGEEWQKLIVWKFPPSKDTSSLESYLQTELHLYTEQSHKEEKTPMPPISSVLLAFSVLGELHSKLKSFGQMLLKYILRPLASCPSLHAVIESQPNIVIIRFESIMTNLEYPSPSEVFTKIRLVLEVLQKQLLDLPLDTDLENEKTSTVPLAEMLGDMIWEDLSECLIKNCLVYSIPTNSSKLQQYEEIIQSTEEFENALKEMRFLKGDTTDLLKYARNINSHFANKKCQDVIVAARNLMTSEIHNTVKIIPDSKINVPELPTPDEDNKLEVQKVSNTQYHEVMNLEPENTLDQHSFSLPTCRISESVKKLMELAYQTLLEATTSSDQCAVQLFYSVRNIFHLFHDVVPTYHKENLQKLPQLAAIHHNNCMYIAHHLLTLGHQFRLRLAPILCDGTATFVDLVPGFRRLGTECFLAQMRAQKGELLERLSSARNFSNMDDEENYSAASKAVRQVLHQLKRLGIVWQDVLPVNIYCKAMGTLLNTAISEVIGKITALEDISTEDGDRLYSLCKTVMDEGPQVFAPLSEESKNKKYQEEVPVYVPKWMPFKELMMMLQASLQEIGDRWADGKGPLAAAFSSSEVKALIRALFQNTERRAAALAKIK"
5,1.8,"hZW10 SE67AA (natural protein, human, UniProt O43264 1-779, looked up) MASFVTEVLAHSGRLEKEDLGTRISRLTRRVEEIKGEVCNMISKKYSEFLPSMQSAQGLITQVDKLAADIDLLKSRIESEVRRDLHVSTGEFTDLKQQLERDSVVLSLLKQLQEFSTAIEEYNCALTEKKYVTGAQRLEEAQKCLKLLKSRKCFDLKILKSLSMELTIQKQNILYHLGEEWQKLIVWKFPPSKDTSSLESYLQTELHLYTEQSHKEEKTPMPPISSVLLAFSVLGELHSKLKSFGQMLLKYILRPLASCPSLHAVIESQPNIVIIRFESIMTNLEYPSPSEVFTKIRLVLEVLQKQLLDLPLDTDLENEKTSTVPLAEMLGDMIWEDLSECLIKNCLVYSIPTNSSKLQQYEEIIQSTEEFENALKEMRFLKGDTTDLLKYARNINSHFANKKCQDVIVAARNLMTSEIHNTVKIIPDSKINVPELPTPDEDNKLEVQKVSNTQYHEVMNLEPENTLDQHSFSLPTCRISESVKKLMELAYQTLLEATTSSDQCAVQLFYSVRNIFHLFHDVVPTYHKENLQKLPQLAAIHHNNCMYIAHHLLTLGHQFRLRLAPILCDGTATFVDLVPGFRRLGTECFLAQMRAQKGELLERLSSARNFSNMDDEENYSAASKAVRQVLHQLKRLGIVWQDVLPVNIYCKAMGTLLNTAISEVIGKITALEDISTEDGDRLYSLCKTVMDEGPQVFAPLSEESKNKKYQEEVPVYVPKWMPFKELMMMLQASLQEIGDRWADGKGPLAAAFSSSEVKALIRALFQNTERRAAALAKIK"
